T1: recombinant human lymphotoxin-α homotrimer (human LTα3) (human, UniProt P01374 35-205)
T1 construct: Coated on plates in the ELISAs; also called rhLTα; lymphotoxin-α3 trimer
T1 sequence (looked up): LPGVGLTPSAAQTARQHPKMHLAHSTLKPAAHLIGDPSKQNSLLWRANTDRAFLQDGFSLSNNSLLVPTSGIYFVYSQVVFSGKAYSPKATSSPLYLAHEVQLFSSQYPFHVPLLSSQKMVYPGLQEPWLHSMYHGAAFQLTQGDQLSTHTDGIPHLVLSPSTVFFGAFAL

B1: 3F12 version 13 (3F12.v5 with Y31A, CDR-L1) (antibody, IgG1, V domains shown)
VH: EVQLVESGGGLVQPGGSLRLSCAASGYTFSSYWIEWVRQAPGKGLEWVGEISPGSGSTNYNEEFKGRATFSADNSKNTAYLQMNSLRAEDTAVYYCADGYHGYWGQGTLVTVSS
VL: DIQMTQSPSSLSASVGDRVTITCKSSQSLLASTNQKNFLAWYQQKPGKAPKLLIYWASTRDSGVPSRFSGSGSGTDFTLTISSLQPEDFATYYCQQYYSYPRTFGQGTKVEIK
notes: Alanine-scan variant of 3F12.v5; human kappa / IgG1
B2: 3F12 version 27 (3F12.v5 with N58A, CDR-H2) (antibody, IgG1, V domains shown)
VH: EVQLVESGGGLVQPGGSLRLSCAASGYTFSSYWIEWVRQAPGKGLEWVGEISPGSGSTAYNEEFKGRATFSADNSKNTAYLQMNSLRAEDTAVYYCADGYHGYWGQGTLVTVSS
VL: DIQMTQSPSSLSASVGDRVTITCKSSQSLLYSTNQKNFLAWYQQKPGKAPKLLIYWASTRDSGVPSRFSGSGSGTDFTLTISSLQPEDFATYYCQQYYSYPRTFGQGTKVEIK
notes: as for B1
B3: 3F12 version 29 (3F12.v5 with N60A, CDR-H2) (antibody, IgG1, V domains shown)
VH: EVQLVESGGGLVQPGGSLRLSCAASGYTFSSYWIEWVRQAPGKGLEWVGEISPGSGSTNYAEEFKGRATFSADNSKNTAYLQMNSLRAEDTAVYYCADGYHGYWGQGTLVTVSS
VL: DIQMTQSPSSLSASVGDRVTITCKSSQSLLYSTNQKNFLAWYQQKPGKAPKLLIYWASTRDSGVPSRFSGSGSGTDFTLTISSLQPEDFATYYCQQYYSYPRTFGQGTKVEIK
notes: as for B1
B4: 3F12 version 16 (3F12.v5 with K36A, CDR-L1) (antibody, IgG1, V domains shown)
VH: EVQLVESGGGLVQPGGSLRLSCAASGYTFSSYWIEWVRQAPGKGLEWVGEISPGSGSTNYNEEFKGRATFSADNSKNTAYLQMNSLRAEDTAVYYCADGYHGYWGQGTLVTVSS
VL: DIQMTQSPSSLSASVGDRVTITCKSSQSLLYSTNQANFLAWYQQKPGKAPKLLIYWASTRDSGVPSRFSGSGSGTDFTLTISSLQPEDFATYYCQQYYSYPRTFGQGTKVEIK
notes: as for B1
B5: 3F12 version 20 (3F12.v5 with Y92A, CDR-L3) (antibody, IgG1, V domains shown)
VH: EVQLVESGGGLVQPGGSLRLSCAASGYTFSSYWIEWVRQAPGKGLEWVGEISPGSGSTNYNEEFKGRATFSADNSKNTAYLQMNSLRAEDTAVYYCADGYHGYWGQGTLVTVSS
VL: DIQMTQSPSSLSASVGDRVTITCKSSQSLLYSTNQKNFLAWYQQKPGKAPKLLIYWASTRDSGVPSRFSGSGSGTDFTLTISSLQPEDFATYYCQQYASYPRTFGQGTKVEIK
notes: Alanine-scan variant of 3F12.v5; human kappa / IgG1; also called 3F12 clone 20
B6: 3F12 version 24 (3F12.v5 with G53A, CDR-H2) (antibody, IgG1, V domains shown)
VH: EVQLVESGGGLVQPGGSLRLSCAASGYTFSSYWIEWVRQAPGKGLEWVGEISPASGSTNYNEEFKGRATFSADNSKNTAYLQMNSLRAEDTAVYYCADGYHGYWGQGTLVTVSS
VL: DIQMTQSPSSLSASVGDRVTITCKSSQSLLYSTNQKNFLAWYQQKPGKAPKLLIYWASTRDSGVPSRFSGSGSGTDFTLTISSLQPEDFATYYCQQYYSYPRTFGQGTKVEIK
notes: as for B1
B7: 3F12 version 28 (3F12.v5 with Y59A, CDR-H2) (antibody, IgG1, V domains shown)
VH: EVQLVESGGGLVQPGGSLRLSCAASGYTFSSYWIEWVRQAPGKGLEWVGEISPGSGSTNANEEFKGRATFSADNSKNTAYLQMNSLRAEDTAVYYCADGYHGYWGQGTLVTVSS
VL: DIQMTQSPSSLSASVGDRVTITCKSSQSLLYSTNQKNFLAWYQQKPGKAPKLLIYWASTRDSGVPSRFSGSGSGTDFTLTISSLQPEDFATYYCQQYYSYPRTFGQGTKVEIK
notes: as for B1
B8: 3F12 version 25 (3F12.v5 with G55A, CDR-H2) (antibody, IgG1, V domains shown)
VH: EVQLVESGGGLVQPGGSLRLSCAASGYTFSSYWIEWVRQAPGKGLEWVGEISPGSASTNYNEEFKGRATFSADNSKNTAYLQMNSLRAEDTAVYYCADGYHGYWGQGTLVTVSS
VL: DIQMTQSPSSLSASVGDRVTITCKSSQSLLYSTNQKNFLAWYQQKPGKAPKLLIYWASTRDSGVPSRFSGSGSGTDFTLTISSLQPEDFATYYCQQYYSYPRTFGQGTKVEIK
notes: as for B1
B9: 3F12 version 21 (3F12.v5 with S93A, CDR-L3) (antibody, IgG1, V domains shown)
VH: EVQLVESGGGLVQPGGSLRLSCAASGYTFSSYWIEWVRQAPGKGLEWVGEISPGSGSTNYNEEFKGRATFSADNSKNTAYLQMNSLRAEDTAVYYCADGYHGYWGQGTLVTVSS
VL: DIQMTQSPSSLSASVGDRVTITCKSSQSLLYSTNQKNFLAWYQQKPGKAPKLLIYWASTRDSGVPSRFSGSGSGTDFTLTISSLQPEDFATYYCQQYYAYPRTFGQGTKVEIK
notes: Alanine-scan variant of 3F12.v5; human kappa / IgG1; also called 3F12 clone 21
B10: 3F12 version 30 (3F12.v5 with E61A, CDR-H2) (antibody, IgG1, V domains shown)
VH: EVQLVESGGGLVQPGGSLRLSCAASGYTFSSYWIEWVRQAPGKGLEWVGEISPGSGSTNYNAEFKGRATFSADNSKNTAYLQMNSLRAEDTAVYYCADGYHGYWGQGTLVTVSS
VL: DIQMTQSPSSLSASVGDRVTITCKSSQSLLYSTNQKNFLAWYQQKPGKAPKLLIYWASTRDSGVPSRFSGSGSGTDFTLTISSLQPEDFATYYCQQYYSYPRTFGQGTKVEIK
notes: as for B1
B11: 3F12 version 18 (3F12.v5 with Q89A, CDR-L3) (antibody, IgG1, V domains shown)
VH: EVQLVESGGGLVQPGGSLRLSCAASGYTFSSYWIEWVRQAPGKGLEWVGEISPGSGSTNYNEEFKGRATFSADNSKNTAYLQMNSLRAEDTAVYYCADGYHGYWGQGTLVTVSS
VL: DIQMTQSPSSLSASVGDRVTITCKSSQSLLYSTNQKNFLAWYQQKPGKAPKLLIYWASTRDSGVPSRFSGSGSGTDFTLTISSLQPEDFATYYCAQYYSYPRTFGQGTKVEIK
notes: as for B1
B12: 3F12 version 12 (3F12.v5 with Y102A, CDR-H3) (antibody, IgG1, V domains shown)
VH: EVQLVESGGGLVQPGGSLRLSCAASGYTFSSYWIEWVRQAPGKGLEWVGEISPGSGSTNYNEEFKGRATFSADNSKNTAYLQMNSLRAEDTAVYYCADGYHGAWGQGTLVTVSS
VL: DIQMTQSPSSLSASVGDRVTITCKSSQSLLYSTNQKNFLAWYQQKPGKAPKLLIYWASTRDSGVPSRFSGSGSGTDFTLTISSLQPEDFATYYCQQYYSYPRTFGQGTKVEIK
notes: Alanine-scan variant of 3F12.v5; human kappa / IgG1; also called 3F12 clone 12
B13: 3F12 version 17 (3F12.v5 with F38A, CDR-L1) (antibody, IgG1, V domains shown)
VH: EVQLVESGGGLVQPGGSLRLSCAASGYTFSSYWIEWVRQAPGKGLEWVGEISPGSGSTNYNEEFKGRATFSADNSKNTAYLQMNSLRAEDTAVYYCADGYHGYWGQGTLVTVSS
VL: DIQMTQSPSSLSASVGDRVTITCKSSQSLLYSTNQKNALAWYQQKPGKAPKLLIYWASTRDSGVPSRFSGSGSGTDFTLTISSLQPEDFATYYCQQYYSYPRTFGQGTKVEIK
notes: Alanine-scan variant of 3F12.v5; human kappa / IgG1; also called 3F12 clone 17
B14: 3F12 version 23 (3F12.v5 with R96A, CDR-L3) (antibody, IgG1, V domains shown)
VH: EVQLVESGGGLVQPGGSLRLSCAASGYTFSSYWIEWVRQAPGKGLEWVGEISPGSGSTNYNEEFKGRATFSADNSKNTAYLQMNSLRAEDTAVYYCADGYHGYWGQGTLVTVSS
VL: DIQMTQSPSSLSASVGDRVTITCKSSQSLLYSTNQKNFLAWYQQKPGKAPKLLIYWASTRDSGVPSRFSGSGSGTDFTLTISSLQPEDFATYYCQQYYSYPATFGQGTKVEIK
notes: as for B1
B15: 3F12 version 19 (3F12.v5 with Y91A, CDR-L3) (antibody, IgG1, V domains shown)
VH: EVQLVESGGGLVQPGGSLRLSCAASGYTFSSYWIEWVRQAPGKGLEWVGEISPGSGSTNYNEEFKGRATFSADNSKNTAYLQMNSLRAEDTAVYYCADGYHGYWGQGTLVTVSS
VL: DIQMTQSPSSLSASVGDRVTITCKSSQSLLYSTNQKNFLAWYQQKPGKAPKLLIYWASTRDSGVPSRFSGSGSGTDFTLTISSLQPEDFATYYCQQAYSYPRTFGQGTKVEIK
notes: as for B1
B16: 3F12 version 9 (3F12.v5 with Y99A, CDR-H3) (antibody, IgG1, V domains shown)
VH: EVQLVESGGGLVQPGGSLRLSCAASGYTFSSYWIEWVRQAPGKGLEWVGEISPGSGSTNYNEEFKGRATFSADNSKNTAYLQMNSLRAEDTAVYYCADGAHGYWGQGTLVTVSS
VL: DIQMTQSPSSLSASVGDRVTITCKSSQSLLYSTNQKNFLAWYQQKPGKAPKLLIYWASTRDSGVPSRFSGSGSGTDFTLTISSLQPEDFATYYCQQYYSYPRTFGQGTKVEIK
notes: as for B1
B17: 3F12 version 22 (3F12.v5 with Y94A, CDR-L3) (antibody, IgG1, V domains shown)
VH: EVQLVESGGGLVQPGGSLRLSCAASGYTFSSYWIEWVRQAPGKGLEWVGEISPGSGSTNYNEEFKGRATFSADNSKNTAYLQMNSLRAEDTAVYYCADGYHGYWGQGTLVTVSS
VL: DIQMTQSPSSLSASVGDRVTITCKSSQSLLYSTNQKNFLAWYQQKPGKAPKLLIYWASTRDSGVPSRFSGSGSGTDFTLTISSLQPEDFATYYCQQYYSAPRTFGQGTKVEIK
notes: as for B1
B18: 3F12 version 15 (3F12.v5 with N34A, CDR-L1) (antibody, IgG1, V domains shown)
VH: EVQLVESGGGLVQPGGSLRLSCAASGYTFSSYWIEWVRQAPGKGLEWVGEISPGSGSTNYNEEFKGRATFSADNSKNTAYLQMNSLRAEDTAVYYCADGYHGYWGQGTLVTVSS
VL: DIQMTQSPSSLSASVGDRVTITCKSSQSLLYSTAQKNFLAWYQQKPGKAPKLLIYWASTRDSGVPSRFSGSGSGTDFTLTISSLQPEDFATYYCQQYYSYPRTFGQGTKVEIK
notes: Alanine-scan variant of 3F12.v5; human kappa / IgG1; also called 3F12 clone 15
B19: 3F12 version 26 (3F12.v5 with S56A, CDR-H2) (antibody, IgG1, V domains shown)
VH: EVQLVESGGGLVQPGGSLRLSCAASGYTFSSYWIEWVRQAPGKGLEWVGEISPGSGATNYNEEFKGRATFSADNSKNTAYLQMNSLRAEDTAVYYCADGYHGYWGQGTLVTVSS
VL: DIQMTQSPSSLSASVGDRVTITCKSSQSLLYSTNQKNFLAWYQQKPGKAPKLLIYWASTRDSGVPSRFSGSGSGTDFTLTISSLQPEDFATYYCQQYYSYPRTFGQGTKVEIK
notes: as for B1
B20: 3F12 version 14 of Table 2 (3F12.v5 with T33A, CDR-L1) (antibody, IgG1, V domains shown)
VH: EVQLVESGGGLVQPGGSLRLSCAASGYTFSSYWIEWVRQAPGKGLEWVGEISPGSGSTNYNEEFKGRATFSADNSKNTAYLQMNSLRAEDTAVYYCADGYHGYWGQGTLVTVSS
VL: DIQMTQSPSSLSASVGDRVTITCKSSQSLLYSANQKNFLAWYQQKPGKAPKLLIYWASTRDSGVPSRFSGSGSGTDFTLTISSLQPEDFATYYCQQYYSYPRTFGQGTKVEIK
notes: Alanine-scan variant of 3F12.v5; human kappa / IgG1; also called 3F12 clone 14

target: T1, recombinant human lymphotoxin-α …; test: plate-based ELISA against LTα

| Binder | relative binding (EC50 of the variant / EC50 of version 5) [ratio] |
| --- | --- |
| B1 | 3.4 |
| B2 | 1.7 |
| B3 | 2.31 |
| B4 | 3.7 |
| B5 | 0.71 |
| B6 | 34.1 |
| B7 | 2.73 |
| B8 | 1.2 |
| B9 | 0.82 |
| B10 | 1.78 |
| B11 | 4.2 |
| B12 | 0.81 |
| B13 | 0.32 |
| B14 | 18.2 |
| B15 | 2.3 |
| B16 | 10 |
| B17 | 14.3 |
| B18 | 0.49 |
| B19 | 1.07 |
| B20 | 0.72 |
